From the supplement of paper PMC9112550, “Optimization of the antimicrobial peptide Bac7 by deep mutational scanning” (BMC Biology, 2022)

Tested on: Escherichia coli TOP10
Test: shrunken log2 fold change of peptide-encoding DNA abundance (4.5 h post-induction vs induction); higher = less antimicrobial activity (less host growth inhibition)
Details: time post-induction: 4.5 h; library: site-saturation at positions 5, 18, 19, 20
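Further: peptides expressed intracellularly from a pBAD plasmid library in pooled LB shake-flask culture, induced with 0.3% L-arabinose, DNA abundance read by NGS, three biological replicates, DESeq2 with apeglm shrinkage.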

Sequence: RRIRKRPPRLPRPRPRPLICPRP
- shrunken log2 fold change: 0.123

Sequence: RRIRLRPPRLPRPRPRPLLGPRP
- shrunken log2 fold change: 0.0797

Sequence: RRIRCRPPRLPRPRPRPAQGPRP
- shrunken log2 fold change: 0.631

Sequence: RRIRVRPPRLPRPRPRPKIVPRP
- shrunken log2 fold change: 0.2

Sequence: RRIRDRPPRLPRPRPRPKVRPRP
- shrunken log2 fold change: 0.00434

Sequence: RRIRERPPRLPRPRPRPWHAPRP
- shrunken log2 fold change: 0.421

Sequence: RRIRDRPPRLPRPRPRPRNEPRP
- shrunken log2 fold change: 0.00109

Sequence: RRIRSRPPRLPRPRPRPCLVPRP
- shrunken log2 fold change: -0.379

Sequence: RRIRGRPPRLPRPRPRPCVNPRP
- shrunken log2 fold change: 0.0252

Sequence: RRIRWRPPRLPRPRPRPKNQPRP
- shrunken log2 fold change: 0.123

Sequence: RRIRARPPRLPRPRPRPCSLPRP
- shrunken log2 fold change: -0.272

Sequence: RRIRARPPRLPRPRPRPNAEPRP
- shrunken log2 fold change: 0.679

Sequence: RRIRWRPPRLPRPRPRPLITPRP
- shrunken log2 fold change: 0.0192

Sequence: RRIRARPPRLPRPRPRPGGNPRP
- shrunken log2 fold change: 0.2

Sequence: RRIRPRPPRLPRPRPRPGHKPRP
- shrunken log2 fold change: -0.287

Sequence: RRIRLRPPRLPRPRPRPITCPRP
- shrunken log2 fold change: -0.513

Sequence: RRIRSRPPRLPRPRPRPHWYPRP
- shrunken log2 fold change: -0.648

Sequence: RRIRNRPPRLPRPRPRPEQRPRP
- shrunken log2 fold change: 0.00383

Sequence: RRIRPRPPRLPRPRPRPWNFPRP
- shrunken log2 fold change: -0.205

Sequence: RRIRDRPPRLPRPRPRPMCEPRP
- shrunken log2 fold change: -0.0122

Sequence: RRIRKRPPRLPRPRPRPQDAPRP
- shrunken log2 fold change: 0.027

Sequence: RRIRWRPPRLPRPRPRPGKPPRP
- shrunken log2 fold change: 0.066

Sequence: RRIRTRPPRLPRPRPRPFCFPRP
- shrunken log2 fold change: -0.134

Sequence: RRIRPRPPRLPRPRPRPMNQPRP
- shrunken log2 fold change: 0.00354

Sequence: RRIRERPPRLPRPRPRPSVEPRP
- shrunken log2 fold change: -0.326

Sequence: RRIRMRPPRLPRPRPRPHTMPRP
- shrunken log2 fold change: 0.124

Sequence: RRIRDRPPRLPRPRPRPNIGPRP
- shrunken log2 fold change: -0.0132

Sequence: RRIRFRPPRLPRPRPRPPWKPRP
- shrunken log2 fold change: 0.154

Sequence: RRIRARPPRLPRPRPRPLPAPRP
- shrunken log2 fold change: 1.02

Sequence: RRIRLRPPRLPRPRPRPKLCPRP
- shrunken log2 fold change: 0.115

Sequence: RRIRDRPPRLPRPRPRPLNWPRP
- shrunken log2 fold change: 0.0327

Sequence: RRIRPRPPRLPRPRPRPRPEPRP
- shrunken log2 fold change: 0.373

Sequence: RRIRYRPPRLPRPRPRPNSFPRP
- shrunken log2 fold change: -0.0457

Sequence: RRIRGRPPRLPRPRPRPRDQPRP
- shrunken log2 fold change: 1.26

Sequence: RRIRCRPPRLPRPRPRPYEAPRP
- shrunken log2 fold change: -0.511

Sequence: RRIRSRPPRLPRPRPRPHDDPRP
- shrunken log2 fold change: -0.114

Sequence: RRIRERPPRLPRPRPRPSAQPRP
- shrunken log2 fold change: -0.167

Sequence: RRIRARPPRLPRPRPRPHARPRP
- shrunken log2 fold change: 0.156

Sequence: RRIRWRPPRLPRPRPRPKDRPRP
- shrunken log2 fold change: 0.159

Sequence: RRIRPRPPRLPRPRPRPMVNPRP
- shrunken log2 fold change: -0.0636

Sequence: RRIRGRPPRLPRPRPRPKAHPRP
- shrunken log2 fold change: 0.625

Sequence: RRIRHRPPRLPRPRPRPRISPRP
- shrunken log2 fold change: 0.0117

Sequence: RRIRHRPPRLPRPRPRPAPLPRP
- shrunken log2 fold change: 0.16

Sequence: RRIRGRPPRLPRPRPRPPSNPRP
- shrunken log2 fold change: 0.374

Sequence: RRIRFRPPRLPRPRPRPFNMPRP
- shrunken log2 fold change: -0.314

Sequence: RRIRMRPPRLPRPRPRPPHMPRP
- shrunken log2 fold change: 0.296

Sequence: RRIRERPPRLPRPRPRPSNQPRP
- shrunken log2 fold change: -0.841

Sequence: RRIRYRPPRLPRPRPRPGNSPRP
- shrunken log2 fold change: -0.0689

Sequence: RRIRERPPRLPRPRPRPGTKPRP
- shrunken log2 fold change: -0.0636

Sequence: RRIRSRPPRLPRPRPRPECGPRP
- shrunken log2 fold change: 0.646

Sequence: RRIRKRPPRLPRPRPRPDISPRP
- shrunken log2 fold change: -0.0841

Sequence: RRIRVRPPRLPRPRPRPKVIPRP
- shrunken log2 fold change: -0.21

Sequence: RRIRKRPPRLPRPRPRPYIKPRP
- shrunken log2 fold change: -0.28

Sequence: RRIRNRPPRLPRPRPRPDQYPRP
- shrunken log2 fold change: -0.337

Sequence: RRIRSRPPRLPRPRPRPECTPRP
- shrunken log2 fold change: 0.169

Sequence: RRIRRRPPRLPRPRPRPCSFPRP
- shrunken log2 fold change: -0.0171

Sequence: RRIRIRPPRLPRPRPRPGCYPRP
- shrunken log2 fold change: -0.715

Sequence: RRIRIRPPRLPRPRPRPYNDPRP
- shrunken log2 fold change: -0.313

Sequence: RRIRCRPPRLPRPRPRPTSSPRP
- shrunken log2 fold change: -0.11

Sequence: RRIRERPPRLPRPRPRPTPMPRP
- shrunken log2 fold change: 0.0913

Sequence: RRIRTRPPRLPRPRPRPCFTPRP
- shrunken log2 fold change: -0.358

Sequence: RRIRTRPPRLPRPRPRPPIAPRP
- shrunken log2 fold change: 0.328

Sequence: RRIRVRPPRLPRPRPRPFDNPRP
- shrunken log2 fold change: -0.359

Sequence: RRIRDRPPRLPRPRPRPIFHPRP
- shrunken log2 fold change: -0.158

Sequence: RRIRGRPPRLPRPRPRPLSQPRP
- shrunken log2 fold change: 0.872

Sequence: RRIRCRPPRLPRPRPRPQQIPRP
- shrunken log2 fold change: -0.168

Sequence: RRIRTRPPRLPRPRPRPPITPRP
- shrunken log2 fold change: -0.235

Sequence: RRIRKRPPRLPRPRPRPLCKPRP
- shrunken log2 fold change: 0.0465

Sequence: RRIRIRPPRLPRPRPRPRMFPRP
- shrunken log2 fold change: -0.125

Sequence: RRIRMRPPRLPRPRPRPHWNPRP
- shrunken log2 fold change: -0.271

Sequence: RRIRKRPPRLPRPRPRPQANPRP
- shrunken log2 fold change: 0.066

Sequence: RRIRMRPPRLPRPRPRPAPWPRP
- shrunken log2 fold change: 0.807

Sequence: RRIRYRPPRLPRPRPRPDTDPRP
- shrunken log2 fold change: -0.02

Sequence: RRIRYRPPRLPRPRPRPEQKPRP
- shrunken log2 fold change: 0.0039

Sequence: RRIRLRPPRLPRPRPRPSFWPRP
- shrunken log2 fold change: 0.0795

Sequence: RRIRERPPRLPRPRPRPIAYPRP
- shrunken log2 fold change: -0.0148

Sequence: RRIRRRPPRLPRPRPRPGIEPRP
- shrunken log2 fold change: -0.0777

Sequence: RRIRTRPPRLPRPRPRPRVSPRP
- shrunken log2 fold change: 0.0622

Sequence: RRIRIRPPRLPRPRPRPDHPPRP
- shrunken log2 fold change: -0.266

Sequence: RRIRKRPPRLPRPRPRPVAWPRP
- shrunken log2 fold change: 0.315

Sequence: RRIRVRPPRLPRPRPRPTIAPRP
- shrunken log2 fold change: 0.335

Sequence: RRIRARPPRLPRPRPRPFCKPRP
- shrunken log2 fold change: -0.25

Sequence: RRIRGRPPRLPRPRPRPNGYPRP
- shrunken log2 fold change: -0.00669

Sequence: RRIRCRPPRLPRPRPRPGAKPRP
- shrunken log2 fold change: 0.309

Sequence: RRIRYRPPRLPRPRPRPGPLPRP
- shrunken log2 fold change: -0.151

Sequence: RRIRHRPPRLPRPRPRPKKQPRP
- shrunken log2 fold change: -0.0264

Sequence: RRIRHRPPRLPRPRPRPVIGPRP
- shrunken log2 fold change: -0.0297

Sequence: RRIRYRPPRLPRPRPRPHKLPRP
- shrunken log2 fold change: -0.188

Sequence: RRIRERPPRLPRPRPRPPMPPRP
- shrunken log2 fold change: 0.0249

Sequence: RRIRVRPPRLPRPRPRPWTEPRP
- shrunken log2 fold change: -0.0547

Sequence: RRIRRRPPRLPRPRPRPMWHPRP
- shrunken log2 fold change: -0.03

Sequence: RRIRCRPPRLPRPRPRPQEWPRP
- shrunken log2 fold change: 0.00898

Sequence: RRIRERPPRLPRPRPRPKFRPRP
- shrunken log2 fold change: -0.315

Sequence: RRIRVRPPRLPRPRPRPALRPRP
- shrunken log2 fold change: 0.306

Sequence: RRIRQRPPRLPRPRPRPARMPRP
- shrunken log2 fold change: 0.195

Sequence: RRIRFRPPRLPRPRPRPCAGPRP
- shrunken log2 fold change: -0.177

Sequence: RRIRLRPPRLPRPRPRPTHPPRP
- shrunken log2 fold change: 0.0349

Sequence: RRIRNRPPRLPRPRPRPDCFPRP
- shrunken log2 fold change: -0.306

Sequence: RRIRYRPPRLPRPRPRPSGHPRP
- shrunken log2 fold change: -0.265

Sequence: RRIRKRPPRLPRPRPRPKGGPRP
- shrunken log2 fold change: 4.1

Sequence: RRIRMRPPRLPRPRPRPGRAPRP
- shrunken log2 fold change: 1.27

Sequence: RRIRWRPPRLPRPRPRPISFPRP
- shrunken log2 fold change: 0.00901

Sequence: RRIRIRPPRLPRPRPRPTKTPRP
- shrunken log2 fold change: 0.12

Sequence: RRIRQRPPRLPRPRPRPHCLPRP
- shrunken log2 fold change: 0.0735

Sequence: RRIRGRPPRLPRPRPRPPSHPRP
- shrunken log2 fold change: 0.597

Sequence: RRIRYRPPRLPRPRPRPWCLPRP
- shrunken log2 fold change: -0.634

Sequence: RRIRGRPPRLPRPRPRPSPMPRP
- shrunken log2 fold change: 0.474

Sequence: RRIRWRPPRLPRPRPRPRYIPRP
- shrunken log2 fold change: -0.665

Sequence: RRIRRRPPRLPRPRPRPTEHPRP
- shrunken log2 fold change: 0.0963

Sequence: RRIRERPPRLPRPRPRPCCYPRP
- shrunken log2 fold change: 0.00792

Sequence: RRIRARPPRLPRPRPRPQLQPRP
- shrunken log2 fold change: 0.426

Sequence: RRIRERPPRLPRPRPRPNFWPRP
- shrunken log2 fold change: 1.9

Sequence: RRIRRRPPRLPRPRPRPQISPRP
- shrunken log2 fold change: -0.0603

Sequence: RRIRGRPPRLPRPRPRPRGNPRP
- shrunken log2 fold change: 0.995

Sequence: RRIRWRPPRLPRPRPRPMDYPRP
- shrunken log2 fold change: -0.314

Sequence: RRIRFRPPRLPRPRPRPNKMPRP
- shrunken log2 fold change: -0.231

Sequence: RRIRERPPRLPRPRPRPRYRPRP
- shrunken log2 fold change: -0.198

Sequence: RRIRARPPRLPRPRPRPDETPRP
- shrunken log2 fold change: 0.00253

Sequence: RRIRHRPPRLPRPRPRPYHGPRP
- shrunken log2 fold change: -0.0161

Sequence: RRIRMRPPRLPRPRPRPEVYPRP
- shrunken log2 fold change: -0.0346

Sequence: RRIRSRPPRLPRPRPRPAFQPRP
- shrunken log2 fold change: -0.0696

Sequence: RRIRYRPPRLPRPRPRPHHIPRP
- shrunken log2 fold change: -0.356

Sequence: RRIRERPPRLPRPRPRPSTVPRP
- shrunken log2 fold change: -0.0579

Sequence: RRIRLRPPRLPRPRPRPTHLPRP
- shrunken log2 fold change: -0.12

Sequence: RRIRYRPPRLPRPRPRPVPIPRP
- shrunken log2 fold change: -0.297

Sequence: RRIRERPPRLPRPRPRPRRWPRP
- shrunken log2 fold change: 0.267

Sequence: RRIRMRPPRLPRPRPRPWEFPRP
- shrunken log2 fold change: 0.0443

Sequence: RRIRDRPPRLPRPRPRPFRLPRP
- shrunken log2 fold change: -0.0192

Sequence: RRIRYRPPRLPRPRPRPQWMPRP
- shrunken log2 fold change: -0.19

Sequence: RRIRGRPPRLPRPRPRPGNRPRP
- shrunken log2 fold change: 0.333

Sequence: RRIRIRPPRLPRPRPRPYDNPRP
- shrunken log2 fold change: 0.0332

Sequence: RRIRWRPPRLPRPRPRPFWKPRP
- shrunken log2 fold change: -0.136

Sequence: RRIRVRPPRLPRPRPRPQHYPRP
- shrunken log2 fold change: -0.718

Sequence: RRIRERPPRLPRPRPRPVGGPRP
- shrunken log2 fold change: 0.21

Sequence: RRIRMRPPRLPRPRPRPQKQPRP
- shrunken log2 fold change: 0.0157

Sequence: RRIRRRPPRLPRPRPRPQSQPRP
- shrunken log2 fold change: 0.112

Sequence: RRIRYRPPRLPRPRPRPQHKPRP
- shrunken log2 fold change: -0.547

Sequence: RRIRFRPPRLPRPRPRPYDRPRP
- shrunken log2 fold change: -0.0252

Sequence: RRIRKRPPRLPRPRPRPWMKPRP
- shrunken log2 fold change: -0.0454

Sequence: RRIRDRPPRLPRPRPRPRSSPRP
- shrunken log2 fold change: -0.0289

Sequence: RRIRIRPPRLPRPRPRPWTFPRP
- shrunken log2 fold change: 0.0921

Sequence: RRIRGRPPRLPRPRPRPKAIPRP
- shrunken log2 fold change: 0.363

Sequence: RRIRYRPPRLPRPRPRPSCFPRP
- shrunken log2 fold change: -0.361

Sequence: RRIRYRPPRLPRPRPRPFVWPRP
- shrunken log2 fold change: 0.119

Sequence: RRIRPRPPRLPRPRPRPGESPRP
- shrunken log2 fold change: -0.0364

Sequence: RRIRTRPPRLPRPRPRPHERPRP
- shrunken log2 fold change: 0.594

Sequence: RRIRFRPPRLPRPRPRPWMSPRP
- shrunken log2 fold change: -0.0139

Sequence: RRIRVRPPRLPRPRPRPKPAPRP
- shrunken log2 fold change: 0.431

Sequence: RRIRQRPPRLPRPRPRPGRSPRP
- shrunken log2 fold change: 0.105

Sequence: RRIRNRPPRLPRPRPRPCRFPRP
- shrunken log2 fold change: -0.0153
